Assay results from article PMC9174231.

Target: HA-tagged DDX6 (designed around the RecA2 region) (UniProt P26196)
Test: grating-coupled interferometry (GCI); Creoptix WAVEsystem; DDX6 protein immobilised on the sensor chip by amine coupling, 4E-T protein as analyte; PBS/0.01% Tween20; regeneration-free kinetics; blank without DDX6 as reference

Sequence of UniProt P26196 (P26196 whole entry): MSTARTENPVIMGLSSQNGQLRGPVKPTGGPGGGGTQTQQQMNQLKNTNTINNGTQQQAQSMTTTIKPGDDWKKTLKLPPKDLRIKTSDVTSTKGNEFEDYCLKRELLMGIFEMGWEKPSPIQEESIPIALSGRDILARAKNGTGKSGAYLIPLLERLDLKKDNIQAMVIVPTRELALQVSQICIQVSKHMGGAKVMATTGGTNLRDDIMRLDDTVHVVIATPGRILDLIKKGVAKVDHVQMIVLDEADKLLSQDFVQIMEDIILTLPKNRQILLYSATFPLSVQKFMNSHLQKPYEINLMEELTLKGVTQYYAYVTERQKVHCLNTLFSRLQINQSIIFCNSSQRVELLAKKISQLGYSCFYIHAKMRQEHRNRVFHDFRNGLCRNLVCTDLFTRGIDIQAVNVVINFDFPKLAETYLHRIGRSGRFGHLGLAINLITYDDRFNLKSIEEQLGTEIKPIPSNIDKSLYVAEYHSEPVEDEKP

Substance: HA-tagged 4E-T (designed around the CHD region) (from UniProt Q9NRA8 1-985) (domain or fragment)
- Kd: 0.774 µM
- koff: 0.000278 s⁻¹
- kon: 359 M⁻¹ s⁻¹
